# Source: patent US20130167269A1
# B1: Full-length Cry6Aa1 protein (protein)
# chain: MIIDSKTTLPRHSLIHTIKLNSNKKYGPGDMTNGNQFIISKQEWATIGAYIQTGLGLPVNEQQLRTHVNLSQDISIPSDFSQLYDVYCSDKTSAEWWNKNLYPLIIKSANDIASYGFKVAGDPSIKKDGYFKKLQDELDNIVDNNSDDDAIAKAIKDFKARCGILIKEAKQYEEAAKNIVTSLDQFLHGDQKKLEGVINIQKRLKEVQTALNQAHGESSPAHKELLEKVKNLKTTLERTIKAEQDLEKKVEYSFLLGPLLGFVVYEILENTAVQHIKNQIDEIKKQLDSAQHDLDRDVKIIGMLNSINTDIDNLYSQGQEAIKVFQKLQGIWATIGAQIENLRTTSLQEVQDSDDADEIQIELEDASDAWLVVAQEARDFTLNAYSTNSRQNLPINVISDSCNCSTTNMTSNQYSNPTTNMTSNQYMISHEYTSLPNNFMLSRNSNLEYKCPENNFMIYWYNNSDWYNNSDWYNN
# modifications: 125I-iodinated (Pierce Iodination Beads, Na125I) in the saturation assay; positions not given; unlabeled when used as competitor
# B2: Chymotrypsin-truncated Cry35Ab1 core protein (protein)
# chain: MLDTNKVYEISNHANGLYAATYLSLDDSGVSLMNKNDDDIDDYNLKWFLFPIDDDQYIITSYAANNCKVWNVNNDKINVSTYSSTNSIQKWQIKANGSSYVIQSDNGKVLTAGTGQALGLIRLTDESSNNPNQQWNLTSVQTIQLPQKPIIDTKLKDYPKYSPTGNIDNGTSPQLMGWTLVPCIMVNDPNIDKNTQIKTTPYYILKKYQYWQRAVGSNVALRPHEKKSYTYEWGTEIDQKTTIINTLGFQINIDSGMKFDIPEVGGGTDEIKTQLNEELKIEYSHETKIMEKYQEQSEIDNPTDQSMNSIGFLTITSLELYRYNGSEIRIMQIQTSDNDTYNVTSYPNHQQALL
# modifications: 125I-iodinated (Pierce Iodination Beads, Na125I) when used as the labeled ligand; positions not given; unlabeled when used as competitor
# Experiments:
# [1] = molecular target: Brush border membrane vesicle (BBMV) preparation from midguts of third instars of the western corn rootworm (Diabrotica virgifera virgifera LeConte) (Diabrotica virgifera virgifera)
# [2] = molecular target: Brush border membrane vesicle (BBMV) preparation from midguts of third instars of the western corn rootworm (Diabrotica virgifera virgifera LeConte) (Diabrotica virgifera virgifera); test: Homologous competition: unlabeled Cry35Ab1 (0-5,000 nM) against 5 nM 125I-Cry35Ab1 on BBMV (0.1 mg/ml); remaining about 50% considered nonspecific
Binder,Kd [1] [nM],binding site concentration Bmax (pmole/ug BBMV) [1],percent of bound 125I-Cry35Ab1 displaced at approximately 100 nM unlabeled Cry35Ab1 [2] [%]
B1,7.99,2.71,–
B2,11.7,5.19,> 50
